Targets include RPB1 (human (endogenous in HeLa), UniProt P24928 1-1970); TBP (human, UniProt P20226 1-339); RPB2 (human (endogenous in HeLa), UniProt P30876 1-1174).
Assay in all cases: cryo-EM structure

2 molecules from PMC4940141 (Nature, 2016) can be followed below.

TBP, sequence (P20226 whole entry): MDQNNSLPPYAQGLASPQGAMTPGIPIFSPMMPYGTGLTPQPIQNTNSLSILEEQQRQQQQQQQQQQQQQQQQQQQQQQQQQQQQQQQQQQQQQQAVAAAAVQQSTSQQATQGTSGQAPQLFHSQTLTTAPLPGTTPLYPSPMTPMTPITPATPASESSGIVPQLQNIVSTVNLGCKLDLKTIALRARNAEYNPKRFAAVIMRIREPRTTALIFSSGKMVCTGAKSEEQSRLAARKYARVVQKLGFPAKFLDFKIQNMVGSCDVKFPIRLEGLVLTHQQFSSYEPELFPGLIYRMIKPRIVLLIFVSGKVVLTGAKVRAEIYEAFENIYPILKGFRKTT

B1: TFIIEα (natural protein)
chain: MADPDVLTEVPAALKRLAKYVIRGFYGIEHALALDILIRNSCVKEEDMLELLKFDRKQLRSVLNNLKGDKFIKCRMRVETAADGKTTRHNYYFINYRTLVNVVKYKLDHMRRRIETDERDSTNRASFKCPVCSSTFTDLEANQLFDPMTGTFRCTFCHTEVEEDESAMPKKDARTLLARFNEQIEPIYALLRETEDVNLAYEILEPEPTEIPALKQSKDHAATTAGAASLAGGHHREAWATKGPSYEDLYTQNVVINMDDQEDLHRASLEGKSAKERPIWLRESTVQGAYGSEDMKEGGIDMDAFQEREEGHAGPDDNEEVMRALLIHEKKTSSAMAGSVGAAAPVTAANGSDSESETSESDDDSPPRPAAVAVHKREEDEEEDDEFEEVADDPIVMVAGRPFSYSEVSQRPELVAQMTPEEKEAYIAMGQRMFEDLFE
On to B1, for which, in the test with RPB1, the binding result is listed as “binds”.

B2: RAP30 (natural protein, human)
chain: MAERGELDLTGAKQNTGVWLVKVPKYLSQQWAKASGRGEVGKLRIAKTQGRTEVSFTLNEDLANIHDIGGKPASVSAPREHPFVLQSVGGQTLTVFTESSSDKLSLEGIVVQRAECRPAASENYMRLKRLQIEESSKPVRLSQQLDKVVTTNYKPVANHQYNIEYERKKKEDGKRARADKQHVLDMLFSAFEKHQYYNLKDLVDITKQPVVYLKEILKEIGVQNVKGIHKNTWELKPEYRHYQGEEKSD
With B2, the binding result with TBP and in the test with RPB2 was “binds” in each case.
